From the DeepSol protein solubility set

Experiment: soluble on expression in E. coli; label from the status in PepcDB or PDB records

Sequence	soluble on expression in E. coli
AANDNNVEWNGLFHDQGPLFDNAPEPTSTQSVTLKLRTFKGDITSANIKYWDTADNAFHWVPMVWDSNDPTGTFDYWKGTIPASPSIKYYRFQINDGTSTAWYNGNGPSSTEPNADDFYIIPNFKTPDWLKNGVMYQIFPDRFYNGDSSNDVQTGSYTYNGTPTEKKAWGSSVYADPGYDNSLVFFGGDLAGIDQKLGYIKKTLGANILYLNPIFKAPTNHKYDTQDYMAVDPAFGDNSTLQTLINDIHSTANGPKGYLILDGVFNHTGDSHPWFDKYNNFSSQGAYESQSSPWYNYYTFYTWPDSYASFLGFNSLPKLNYGNSGSAVRGVIYNNSNSVAKTYLNPPYSVDGWRLDAAQYVDANGNNGSDVTNHQIWSEFRNAVKGVNSNAAIIGEYWGNANPWTAQGNQWDAATNFDGFTQPVSEWITGKDYQNNSASISTTQFDSWLRGTRANYPTNVQQSMMNFLSNHDITRFATRSGGDLWKTYLALIFQMTYVGTPTIYYGDEYGMQGGADPDNRRSFDWSQATPSNSAVALTQKLITIRNQYPALRTGSFMTLITDDTNKIYSYGRFDNVNRIAVVLNNDSVSHTVNVPVWQLSMPNGSTVTDKITGHSYTVQNGMVTVAVDGHYGAVLAQ	soluble
MASNYNSGLKIGAWVGTQPSESAIKSFQELQGRKLDIVHQFINWSTDFSWVRPYADAVYNNGSILMITWEPWEYNTVDIKNGKADAYITRMAQDMKAYGKEIWLRPLHEANGDWYPWAIGYSSRVNTNETYIAAFRHIVDIFRANGATNVKWVFNVNCDNVGNGTSYLGHYPGDNYVDYTSIDGYNWGTTQSWGSQWQSFDQVFSRAYQALASINKPIIIAEFASAEIGGNKARWITEAYNSIRTSYNKVIAAVWFHENKETDWRINSSPEALAAYREAIGALEHHHHHH	soluble
MQPDVSFAPDVSFVIASYNAEATLDRAIASAIAQKGVSVEIIVVDDQSRDATLDVARAYPGDIVRVVALAKNRGPGGARNAGLDVARGRWIAVLDSDDAVFPGRLAAMISRAEKADAQIAVDNLQVIREDGVVEDAMFPRQYLEGLREISLATYIAGNVVFESKFNLGYLKPIFQRRFLDENRLRYDEQLRIGEDYILFAEALAKGGRCVVEPAIGYAYHIRSGSISRVLELHHVEAMRKADAVFAQTHRMDEAAQVAFARRGRSLRKAASFLAMVQHIKARSPLKAIRTALSDPAAVRHMGMPIAVRLRRVAAQFAVGAGRLEHHHHHH	soluble
MLTRLAAVLEERKNAAPDSSYVASLYHKGLNKILEKVGEESVETIIAAKDAAASGDCQDLIYETADLWFHSLVMLSALGQHPQAVLDELERRFG	soluble
MSLESIKVVIVGGGQAGIAMGYYLVKEKVPFMILDANEQVGDSWRNRYDSLVLFTPRTYSQLPGFPMDGAPNGFPTKDEMASYLQQYANHFNLPMRHHTKVDRVTRQQNGRFHLKTTNGWIEAEKVVIATGAFQKPYLPPVLDSANNEMSQVHSSAYRNPAQIPGKSVLVVGGGNSGAQIAVELAKERNVTMAISHPFRFLPLKLLNKSMFSWLEWGGLLYAGIDTTRGRWFKKQKDPIFGKELKSLIKKGQIHLKPRVMNVQGKEVEFADHSRLSFDRIIWSTGFSPSYEWIDIDGVIATNGWPIHNRGITNIRGLYFLGLPWQYQRGSALVCGVGRDAEYLVPFIKHGDKEGHHHHHH	soluble
MAHHHHHHMSFKPKIIVCSSPAELSGVACKKIVDIIHASERTNWPLSIALSGGSTPKMLYSRLHEEHLHLLKEERALRFFFGDERLVPADAAESNYNMARQALLHDIPEDLVVPVDVGCVGEVSNVACNDAVKAADAYEKRIDLLLGTQKVEGMEAEIPVFDIVLLGLGSDGHTASIFHGSQAESEMHRAVSVGFPSPTMSPKVWRVTLTPITIIHARHVILLATGKEKKCVLNGIIADTPTEVPVSRFLRNCKGDVTFILDREIAENLTC	soluble
EANLKPENVEIHIIDDNFFLKWNSSSESVKNVTFSADYQILGTDNWKKLSGCQHITSTKCNFSSVELENVFEKIELRIRAEEGNNTSTWYEVEPFVPFLEAQIGPPDVHLEAEDKAIILSISPPGTKDSIMWAMDRSSFRYSVVIWKNSSSLEERTETVYPEDKIYKLSPEITYCLKVKAELRLQSRVGCYSPVYCINTTERHKVPSPENIQINADNQIYVLKWDYPYENATFQAQWLRAFFKKIPGNHSDKWKQIPNCENVTSTHCVFPREVSSRGIYYVRVRASNGNGTSFWSEEKEFNTEMKTIIFPPVISVKSVTDDSLHVSVGASEESENMSVNQLYPLIYEVIFWENTSNAERKVLEKRTNFIFPDLKPLTVYCVKARALIENDRRNKGSSVSDTVCEKTKPGNTSK	not soluble
MSVAIDHDQTAKWDWPFQKGDGVVKVLDYEDHFEVGLEAHNFLPNEIDVKNIGEFLEIHMAHTTKDDKFGSITRSITRCYRLPKGTDPATIKSKLDGSGILHISGNKKK	not soluble
VEGAVKTEPVDLFHPGFLNSSNYRIPALFKTKEGTLIASIDARRHGGADAPNNDIDTAVRRSEDGGKTWDEGQIIMDYPDKSSVIDTTLIQDDETGRIFLLVTHFPSKYGFWNAGLGSGFKNIDGKEYLCLYDSSGKEFTVRENVVYDKDSNKTEYTTNALGDLFKNGTKIDNINSSTAPLKAKGTSYINLVYSDDDGKTWSEPQNINFQVKKDWMKFLGIAPGRGIQIKNGEHKGRIVVPVYYTNEKGKQSSAVIYSDDSGKNWTIGESPNDNRKLENGKIINSKTLSDDAPQLTECQVVEMPNGQLKLFMRNLSGYLNIATSFDGGATWDETVEKDTNVLEPYCQLSVINYSQKVDGKDAVIFSNPNARSRSNGTVRIGLINQVGTYENGEPKYEFDWKYNKLVKPGYYAYSCLTELSNGNIGLLYEGTPSEEMSYIEMNLKYLESGANK	soluble
MSLGKYFGTDGVRGVANSELTPELAFRLGRMGGYVLTRHVGEHPRVLVARDTRISGEMLESALIAGLVSVGIEVMRLGVISTPGVAYLTKAQGASASVMISASHNPVDDNGIKFFGSDGFKLSDDQEEEIEQLLDTAEDTLPRPSGEGLGTVSDYFEGKQKYIQYLKQTIENDFNGYHIALDCANGATSGLATHLFADLDADISSMGASPNGLNINDGVGSTHPEALAAFVLDKKADVGLAFDGDGDRVIAIDEIGQIVDGDKIMFICAKYLREQGLLNNNTIVSTVMSNLGFYKGLKELEIEDVQTAVGDRYVVEAMREGNYNLGGEQSGHIIFLDHNTTGDGLLSGIQLINVMKATGKKLSELAAEMKTFPQKLENIRVSDKNHVTDNPKVSKVIGEVEAEMAGNGRVLVRPSGTEPLVRVMVEAATKEETDEYCERISAVVRSEMALNDEGHHHHHH	soluble
MSRLRIYTESGELIKDITDPKEIAEELQKINVLFERWRANAPLKENASDEEIINAYKHEIDRLINKYGFQSYDVIAMTPEHPKKDELRQKFLKEHTHSDFEVRYFVYGDGVFYLHPNDKVYILHCTAGDLISVPPNTKHWFDMGENPNFKCIRLFTTPEGWVAEYTGSDIAEKFPKYEEVVNGLEHHHHHH	soluble
MGEKLELRLKSPVGAEPAVYPWPLPVYDKHHDAAHEIIETIRWVCEEIPDLKLAMENYVLIDYDTKSFESMQRLCDKYNRAIDSIHQLWKGTTQPMKLNTRPSTGLLRHILQQVYNHSVTDPEKLNNYEPFSPEVYGETSFDLVAQMIDEIKMTDDDLFVDLGSGVGQVVLQVAAATNCKHHYGVEKADIPAKYAETMDREFRKWMKWYGKKHAEYTLERGDFLSEEWRERIANTSVIFVNNFAFGPEVDHQLKERFANMKEGGRIVSSKPFAPLNFRINSRNLSDIGTIMRVVELSPLKGSVSWTGKPVSYYLHTIDRTILENYFSSLKNPKLREEQEAARRRQQRESKSNAATPTKGPEGKVAGPADAPMDSGAEEEKAGAATVKKPSPSKARKKKLNKKGRKMAGRKRGRPKK	soluble
MSLTPKKISSISLEVTGSIVSIGLAVYKDIFEYINLVTHKFIYFQDLERKNIELQLEIARLQHLQSEVESVKAENIALKDLLMIAEEEEFEYLTTKLLSVSFNPFSRTALISAGKKQGIEPDQIVVNSGKLVGKIIEVSNNYSKVMLISDVNSRIPIKANSSREQGILAGNNNNSKILYLPNNHLVQKDEEIVTSGHGNIYPAGILVGYVSRVTENDVIVNLAADLSKMEFVQILLPKQEGHHHHHH	soluble
SLKWDNSYSVHNAKIDEQHKKLFKLAAKVEVVSDRSVSKNEVKELLAEFFNYMKDHFNDEEKYMQLIGYPNLEEHRKIHKEIIQTMINLIKDIKSTNDLKEKLYIVAKKWLLEHILYEDMKVEKWRSSSLSTDDGGDVS	soluble
MGSDKIHHHHHHMQDSMLSGLFGALTTEHRLNNIANNLANVNTNGYKRDVLAFKDTMALFAHDEIMEPMANVRSKKLFPEPLHVARPRIAVARTDFSQGSFHYTSDPLDLAISGNGFFKVRTPEGEFYTRNGHFRQTSDGQLVTMQGWPVLSEGGDINLPQGKNLQVASDGRIAVDGVDVGQLQVVTVSDLEGLEKLGGNLYRLREGSTAGEVPVGPDVIVSQGYIETSNVEVVNEMVNMIETQRQFEAYQKVMQTSDTVDRDAITKIGRGR	not soluble
MKGTQMLALNKKCWDIVAPYFFQVDCLPKYGPYTASEDEIHLFDSIKGKKVLDIGCGSGHSLQYMAEHGAEELWGLDLSSTQIETAHETLQSWNPKLICGAMEEERDIPKGYFDIVYSIYALGWTSDLRKTLELIYSYVKPGGSFIFSWEHPVYSNLMYGTEEIAFSSSYHEETPITFETFKGEDVQATLYKRKMSTYINELNRVGFTIERIEEPEPSSSFDEKLAEPSTKYYSLHKARMVPTTFIIKARKLEHHHHHH	soluble
ESDSVEFNNAISYVNKIKTRFLDHPEIYRSFLEILHTYQKEQLHTKGRPFRGMSEEEVFTEVANLFRGQEDLLSEFGQFLPEAKR	soluble
MGSDKIHHHHHHLAKNNPISIPVSELRLGLTVKLPLSWTEHPFLINRIELKEQAQIEMIRGLKVQHVLVLAGAELLDEDVPKEEVPIEDDGFDEDMPERDVKREARVAIRKSQKRFLDCVNDSRSLVGKLGSDPEGAYRLSATLVEQMLEHLFEQEAAYLALVSAGEQGASVTQHGISVAVLSLMIAKSMDMPKKDMRDIALGALLHDIGKLRVPDNIRRKRGPLTTQEINFMNQHPNYGHEMLSRSGLFPEEVLHIIRHHHEFIDGTGFPGGLNGKKIPRTTQIVTLANDFEDQMTSHSIASPQVALGYLFKHRVGKHDEALIATLVKVLRHLSARYSGASHRRFFGKGDDDHPGSQAASGVGLQRRRRRPRPQNLDE	not soluble
MKIYTRTGDAGETGLYGAERVVKAHPRVEAYGTVDEANSAIGLARSLLPGKHRDLHDLLERLQNALFDLGADLATRMGSPYEKNIARMDAEDVRALEEAIDRYQEESPPFQGFILPGGHPAAAALHLARTVVRRAERKAVALSREEPVNPEVIRYLNRLSDLLFVLARVVNAREGIKEEGWLVKKRR	soluble
MGHHHHHHSHMVSPSKAVIVPGKIGGDETTHGWYGWVKKELEKIPGFQCLAKNMPDPITARESIWLPFMETELHCDEKTIIIGHSSGAIAAMRYAETHRVYALILVSAYTSEFGDENERASGYFSRPWQWEKIKANCPHIVQFGSTDDPFLPWKEQQEVADSWTPNCTNSLTVVTFRTQSSMN	not soluble
GGQIVHTETTEVVLCGDPLSGFGLQLQGGIFATETLSSPPLVCFIEPDSPAERCGLLQVGDRVLSINGIATEDGTMEEANQLLRDAALAHKVVLEVEFD	soluble
